Measured values published in patent US20230184768A1 (MESO SCALE TECHNOLOGIES, published 2023).

Target: T1, labeled ACE2 (angiotensin-converting enzyme 2) (human, UniProt Q9BYF1 18-740)
T1 construct: also called ACE2 detection reagent
Assay: labeled ACE2 on immobilized Mixed Panel, ECL

T1 sequence (Q9BYF1 18-740 limits assumed): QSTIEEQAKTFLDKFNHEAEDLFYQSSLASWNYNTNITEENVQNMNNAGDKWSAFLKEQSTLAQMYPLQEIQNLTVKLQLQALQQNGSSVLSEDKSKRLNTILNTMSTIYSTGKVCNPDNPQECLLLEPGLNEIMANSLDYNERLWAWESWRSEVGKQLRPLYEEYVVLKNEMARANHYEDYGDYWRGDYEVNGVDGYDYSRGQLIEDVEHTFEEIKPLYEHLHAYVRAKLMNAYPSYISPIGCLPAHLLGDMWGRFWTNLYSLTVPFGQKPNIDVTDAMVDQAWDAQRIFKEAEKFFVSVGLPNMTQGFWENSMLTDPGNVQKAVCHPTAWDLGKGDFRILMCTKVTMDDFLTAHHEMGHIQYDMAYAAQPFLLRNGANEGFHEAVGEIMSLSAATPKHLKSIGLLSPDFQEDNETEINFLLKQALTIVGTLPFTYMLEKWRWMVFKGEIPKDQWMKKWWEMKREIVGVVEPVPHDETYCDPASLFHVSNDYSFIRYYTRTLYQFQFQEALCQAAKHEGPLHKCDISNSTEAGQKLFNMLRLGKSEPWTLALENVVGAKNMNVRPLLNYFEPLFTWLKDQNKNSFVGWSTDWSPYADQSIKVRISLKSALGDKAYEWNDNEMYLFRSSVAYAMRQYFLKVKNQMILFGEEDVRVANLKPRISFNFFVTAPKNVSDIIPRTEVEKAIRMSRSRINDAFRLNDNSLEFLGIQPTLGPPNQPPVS

B1: HCoV-HKU1 S protein (other)
chain: AVIGDFNCTNFAINDLNTTVPRISEYVVDVSYGLGTYYILDRVYLNTTILFTGYFPKSGANFRDLSLKGTTYLSTLWYQKPFLSDFNNGIFSRVKNTKLYVNKTLYSEFSTIVIGSVFINNSYTIVVQPHNGVLEITACQYTMCEYPHTICKSKGSSRNESWHFDKSEPLCLFKKNFTYNVSTDWLYFHFYQERGTFYAYYADSGMPTTFLFSLYLGTLLSHYYVLPLTCNAISSNTDNETLQYWVTPLSKRQYLLKFDNRGVITNAVDCSSSFFSEIQCKTKSLLPNTGVYDLSGFTVKPVATVHRRIPDLPDCDIDKWLNNFNVPSPLNWERKIFSNCNFNLSTLLRLVHTDSFSCNNFDESKIYGSCFKSIVLDKFAIPNSRRSDLQLGSSGFLQSSNYKIDTTSSSCQLYYSLPAINVTINNYNPSSWNRRYGFNNFNLSSHSVVYSRYCFSVNNTFCPCAKPSFASSCKSHKPPSASCPIGTNYRSCESTTVLDHTDWCRCSCLPDPITAYDPRSCSQKKSLVGVGEHCAGFGVDEEKCGVLDGSYNVSCLCSTDAFLGWSYDTCVSNNRCNIFSNFILNGINSGTTCSNDLLQPNTEVFTDVCVDYDLYGITGQGIFKEVSAVYYNSWQNLLYDSNGNIIGFKDFVTNKTYNIFPCYAGRVSAAFHQNASSLALLYRNLKCSYVLNNISLTTQPYFDSYLGCVFNADNLTDYSVSSCALRMGSGFCVDYNSPSSSSSRRKRRSISASYRFVTFEPFNVSFVNDSIESVGGLYEIKIPTNFTIVGQEEFIQTNSPKVTIDCSLFVCSNYAACHDLLSEYGTFCDNINSILDEVNGLLDTTQLHVADTLMQGVTLSSNLNTNLHFDVDNINFKSLVGCLGPHCGSSSRSFFEDLLFDKVKLSDVGFVEAYNNCTGGSEIRDLLCVQSFNGIKVLPPILSESQISGYTTAATVAAMFPPWSAAAGIPFSLNVQYRINGLGVTMDVLNKNQKLIATAFNNALLSIQNGFSATNSALAKIQSVVNSNAQALNSLLQQLFNKFGAISSSLQEILSRLDALEAQVQIDRLINGRLTALNAYVSQQLSDISLVKFGAALAMEKVNECVKSQSPRINFCGNGNHILSLVQNAPYGLLFMHFSYKPISFKTVLVSPGLCISGDVGIAPKQGYFIKHNDHWMFTGSSYYYPEPISDKNVVFMNTCSVNFTKAPLVYLNHSVPKLSDFESELSHWFKNQTSIAPNLTLNLHTINATFLDLYYEMNLIQES
notes: also called HCoV-HKU1 spike protein
binding result: no binding
